# Article doi:10.1101/2020.06.11.146753, “Insights into glycan import by a prominent gut symbiont” (bioRxiv, 2020)
# T1: Bt1763 (SusC) (Bacteroides thetaiotaomicron VPI-5482, UniProt Q8A6W3 26-1041)
# T1 construct: Bt1763, SusC TonB-dependent transporter of the levan PUL, Bacteroides thetaiotaomicron VPI-5482; Untagged; isolated through the His6 tag on Bt1762; NTE invisible in the X-ray structures; plug domain absent from closed, empty transporters; also called SusC TonB-dependent transporter; source: B. thetaiotaomicron (Bt1762-his strain) grown on MM-fructose, outer membrane fraction in LDAO; purified …
# T1 sequence (looked up): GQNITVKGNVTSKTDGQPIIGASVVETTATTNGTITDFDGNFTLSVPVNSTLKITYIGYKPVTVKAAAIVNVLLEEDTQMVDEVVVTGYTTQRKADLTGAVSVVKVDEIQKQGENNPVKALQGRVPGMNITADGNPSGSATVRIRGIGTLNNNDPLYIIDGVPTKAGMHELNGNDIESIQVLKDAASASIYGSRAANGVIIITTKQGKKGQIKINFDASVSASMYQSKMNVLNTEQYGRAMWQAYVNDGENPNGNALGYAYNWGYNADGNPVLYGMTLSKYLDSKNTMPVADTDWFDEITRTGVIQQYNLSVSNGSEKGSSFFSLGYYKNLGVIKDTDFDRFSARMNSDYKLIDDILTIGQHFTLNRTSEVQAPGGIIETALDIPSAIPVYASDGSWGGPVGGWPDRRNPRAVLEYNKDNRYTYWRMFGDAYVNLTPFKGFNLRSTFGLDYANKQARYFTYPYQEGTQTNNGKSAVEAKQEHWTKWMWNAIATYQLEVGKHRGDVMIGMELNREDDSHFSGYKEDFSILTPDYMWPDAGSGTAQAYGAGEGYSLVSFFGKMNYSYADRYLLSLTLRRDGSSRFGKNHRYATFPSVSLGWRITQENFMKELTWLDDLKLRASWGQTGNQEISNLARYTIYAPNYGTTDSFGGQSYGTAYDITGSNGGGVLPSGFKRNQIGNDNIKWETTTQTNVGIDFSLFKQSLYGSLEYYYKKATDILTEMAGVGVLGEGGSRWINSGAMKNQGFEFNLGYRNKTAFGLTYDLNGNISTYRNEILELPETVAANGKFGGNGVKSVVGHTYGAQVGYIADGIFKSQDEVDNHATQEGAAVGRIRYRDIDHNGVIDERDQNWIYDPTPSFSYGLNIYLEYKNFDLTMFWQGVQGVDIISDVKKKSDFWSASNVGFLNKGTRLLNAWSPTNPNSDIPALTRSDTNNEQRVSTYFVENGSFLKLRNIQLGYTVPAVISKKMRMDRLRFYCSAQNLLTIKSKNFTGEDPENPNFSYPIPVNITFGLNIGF
# Legend:
# Bt1763 (SusC) = molecular target: T1, Bt1763 (SusC); assay: crystal structure; Bt1762-63 purified from B. theta in 10 mM Hepes/100 mM NaCl/0.4% C8E4 pH 7.5; crystallised without ligand and after incubation with 2.5 mM β2,6 FOS; conditions: both partners purified
# [1] = molecular target: the molecule itself; assay: native MS; purified Bt1762-63 in 0.5% C8E4, 0.2 M ammonium acetate, pH 6.9; ligand-free and with FOS fractions
Binder,binding result (Bt1763 (SusC)),stoichiometry N [1]
"Bt1762 (SusD), C-terminal His6 tag, from the B. theta Bt1762-his strain (natural protein, Bacteroides thetaiotaomicron VPI-5482, UniProt Q8A6W4 19-570, looked up, lipid anchor (lipoprotein), Chromosomally tagged, expressed natively; always isolated together with Bt1763; also called SusD lid; WT Bt1762; source: B. thetaiotaomicron (Bt1762-his strain) grown on MM-fructose, outer membrane fraction in LDAO; purified with Bt1763 (IMAC, SEC); not shown: His6, C-terminal, kept) CDDFLDRQVPQGIVTGDQIASPEYVDNLVISAYAIWATGDDINSSFSLWNYDVRSDDCYKGGSGTEDGGVFNALEISKGINTTDWNINDIWKRLYQCITRANTALQSLDQMDEKTYPLKNQRIAEMRFLRGHAHFMLKQLFKKIVIVNDENMEPDAYNELSNTTYTNDEQWQKIADDFQFAYDNLPEVQIEKGRPAQAAAAAYLAKTYLYKAYRQDGADNALTGINEEDLKQVVKYTDPLIMAKGGYGLETDYSMNFLPQYENGAESVWAIQYSINDGTYNGNLNWGMGLTTPQILGCCDFHKPSQNLVNAFKTDSQGKPLFSTYDNENYEVATDNVDPRLFHTVGMPGFPYKYNEGYIIQKNDDWSRSKGLYGYYVSLKENVDPDCDCLKKGSYWASSLNHIVIRYADVLLMRAEALIQLNDGRITDAISLINEVRSRAAGSTMLIFNYKEDYGVNFKVTPYDLKAYAQDEAMKMLKWERRVEFGMESSRFFDLVRWGEAKDVINAYYVTEASRCSIYKNAGFTENKNEYLPVPFEQISASNGNYTQNFGW",binds,
"Bt1762-63 SusCD complex (one Bt1762 and one Bt1763), the unit that pairs into SusC2D2 (complex, Bacteroides thetaiotaomicron VPI-5482, lipid anchor (lipoprotein), Bt1762 (SusD), Bacteroides thetaiotaomicron VPI-5482; as the chain of m1. numbers count on: the mature protein; Bt1763 (SusC), Bacteroides thetaiotaomicron VPI-5482; as the chain of m2. numbers count on: the mature protein; Used for the self-association of the SusCD unit into the SusC2D2 dimer; also called Bt1762-Bt1763; SusCD monomer; source: B. thetaiotaomicron (Bt1762-his strain) grown on …) chain 1: CDDFLDRQVPQGIVTGDQIASPEYVDNLVISAYAIWATGDDINSSFSLWNYDVRSDDCYKGGSGTEDGGVFNALEISKGINTTDWNINDIWKRLYQCITRANTALQSLDQMDEKTYPLKNQRIAEMRFLRGHAHFMLKQLFKKIVIVNDENMEPDAYNELSNTTYTNDEQWQKIADDFQFAYDNLPEVQIEKGRPAQAAAAAYLAKTYLYKAYRQDGADNALTGINEEDLKQVVKYTDPLIMAKGGYGLETDYSMNFLPQYENGAESVWAIQYSINDGTYNGNLNWGMGLTTPQILGCCDFHKPSQNLVNAFKTDSQGKPLFSTYDNENYEVATDNVDPRLFHTVGMPGFPYKYNEGYIIQKNDDWSRSKGLYGYYVSLKENVDPDCDCLKKGSYWASSLNHIVIRYADVLLMRAEALIQLNDGRITDAISLINEVRSRAAGSTMLIFNYKEDYGVNFKVTPYDLKAYAQDEAMKMLKWERRVEFGMESSRFFDLVRWGEAKDVINAYYVTEASRCSIYKNAGFTENKNEYLPVPFEQISASNGNYTQNFGW chain 2: GQNITVKGNVTSKTDGQPIIGASVVETTATTNGTITDFDGNFTLSVPVNSTLKITYIGYKPVTVKAAAIVNVLLEEDTQMVDEVVVTGYTTQRKADLTGAVSVVKVDEIQKQGENNPVKALQGRVPGMNITADGNPSGSATVRIRGIGTLNNNDPLYIIDGVPTKAGMHELNGNDIESIQVLKDAASASIYGSRAANGVIIITTKQGKKGQIKINFDASVSASMYQSKMNVLNTEQYGRAMWQAYVNDGENPNGNALGYAYNWGYNADGNPVLYGMTLSKYLDSKNTMPVADTDWFDEITRTGVIQQYNLSVSNGSEKGSSFFSLGYYKNLGVIKDTDFDRFSARMNSDYKLIDDILTIGQHFTLNRTSEVQAPGGIIETALDIPSAIPVYASDGSWGGPVGGWPDRRNPRAVLEYNKDNRYTYWRMFGDAYVNLTPFKGFNLRSTFGLDYANKQARYFTYPYQEGTQTNNGKSAVEAKQEHWTKWMWNAIATYQLEVGKHRGDVMIGMELNREDDSHFSGYKEDFSILTPDYMWPDAGSGTAQAYGAGEGYSLVSFFGKMNYSYADRYLLSLTLRRDGSSRFGKNHRYATFPSVSLGWRITQENFMKELTWLDDLKLRASWGQTGNQEISNLARYTIYAPNYGTTDSFGGQSYGTAYDITGSNGGGVLPSGFKRNQIGNDNIKWETTTQTNVGIDFSLFKQSLYGSLEYYYKKATDILTEMAGVGVLGEGGSRWINSGAMKNQGFEFNLGYRNKTAFGLTYDLNGNISTYRNEILELPETVAANGKFGGNGVKSVVGHTYGAQVGYIADGIFKSQDEVDNHATQEGAAVGRIRYRDIDHNGVIDERDQNWIYDPTPSFSYGLNIYLEYKNFDLTMFWQGVQGVDIISDVKKKSDFWSASNVGFLNKGTRLLNAWSPTNPNSDIPALTRSDTNNEQRVSTYFVENGSFLKLRNIQLGYTVPAVISKKMRMDRLRFYCSAQNLLTIKSKNFTGEDPENPNFSYPIPVNITFGLNIGF",,2
